According to patent US20240376151A1, “STAPLED PEPTIDES AND METHODS THEREOF” (FOG PHARMACEUTICALS, INC., priority 2022, published 2024):
Numbered stars: 1 amine (or outer) side, 2 acyl side, 3 side chain; on linkers, the order of the positions; unused ones are H or OH. Bridge positions count the residues as written; N and C are the ends. Ends that are not written are not given here. Phenylene(1,4-NHCOCH2)2 = O=C(C[*:1])Nc1ccc(NC(=O)C[*:2])cc1

Experiments:
MDM2 = target: T1, MDM2 (Homo sapiens, UniProt Q00987); assay: Naive Library Presenter Screening (phage, NGS), MDM2; assay type: binding; conditions: for interaction data, BLANK: Blank = Media only
T1 construct: made in house
T1 sequence (Q00987 25-109): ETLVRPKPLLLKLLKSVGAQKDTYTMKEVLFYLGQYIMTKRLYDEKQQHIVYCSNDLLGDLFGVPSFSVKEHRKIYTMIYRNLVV

CHIP = target: T2, CHIP (Homo sapiens, UniProt Q9UNE7); assay: Naive Library Presenter Screening (phage, NGS), CHIP; assay type: binding; conditions: for interaction data, BLANK: Blank = Media only
T2 construct: N-term truncated CHIP (also known as STUB1, Uniprot ID: Q9UNE7, residues 23-303); made in house; host or cells: E. coli BL21 CodonPlus
T2 sequence (Q9UNE7 23-303): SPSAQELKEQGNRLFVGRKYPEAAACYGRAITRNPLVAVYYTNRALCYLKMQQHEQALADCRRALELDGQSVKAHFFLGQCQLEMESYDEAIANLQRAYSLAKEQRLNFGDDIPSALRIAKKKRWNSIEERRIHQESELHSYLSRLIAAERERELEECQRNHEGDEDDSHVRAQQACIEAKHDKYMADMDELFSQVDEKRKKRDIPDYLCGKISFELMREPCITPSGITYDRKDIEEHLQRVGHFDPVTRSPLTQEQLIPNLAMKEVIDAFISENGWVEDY
Protocol: To conduct phage library screening, previously described procedures were utilized in accordance with the present disclosure.
Next-generation sequencing was performed as described in accordance with the present disclosure.
Hit ID and Clustering is performed according to a described procedure in accordance with the present disclosure.

[1] = MDM2 clusters (C82, C85), first column
[2] = MDM2 clusters (C82, C85), second column
[3] = MDM2 clusters (C82, C85), target concentration 10 nM
[4] = MDM2 clusters (C82, C85), target concentration 30 nM
[5] = MDM2 clusters (C82, C85), target concentration 100 nM
[6] = MDM2 clusters (C82, C85), target concentration 300 nM
[7] = MDM2 clusters (C82, C85), target concentration 1000 nM, first column
[8] = MDM2 clusters (C82, C85), target concentration 1000 nM, second column
[9] = CHIP clusters (C83, C84), first column
[10] = CHIP clusters (C83, C84), second column
[11] = CHIP clusters (C83, C84), target concentration 10 nM
[12] = CHIP clusters (C83, C84), target concentration 30 nM
[13] = CHIP clusters (C83, C84), target concentration 100 nM
[14] = CHIP clusters (C83, C84), target concentration 300 nM
[15] = CHIP clusters (C83, C84), target concentration 1000 nM, first column
[16] = CHIP clusters (C83, C84), target concentration 1000 nM, second column

## DPASADCFNAAWDCMWI (DPASADCFNAAWDCMWI-NH2; linker 7-14 via Phenylene(1,4-NHCOCH2)2 (inferred))
MDM2; [1]
  interaction data, BLANK: 0
MDM2; [2]
  interaction data, BLANK: 0
MDM2; [3]
  interaction data at Target Concentration 10: 0
MDM2; [4]
  interaction data at Target Concentration 30: 19
MDM2; [5]
  interaction data at Target Concentration 100: 102
MDM2; [6]
  interaction data at Target Concentration 300: 165
MDM2; [7]
  interaction data at Target Concentration 1000: 124
MDM2; [8]
  interaction data at Target Concentration 1000: 209

## DPAHRQCFTAAWRCMMT (linker 7-14 via Phenylene(1,4-NHCOCH2)2 (inferred))
MDM2; [1]
  interaction data, BLANK: 0
MDM2; [2]
  interaction data, BLANK: 0
MDM2; [3]
  interaction data at Target Concentration 10: 0
MDM2; [4]
  interaction data at Target Concentration 30: 42
MDM2; [5]
  interaction data at Target Concentration 100: 149
MDM2; [6]
  interaction data at Target Concentration 300: 156
MDM2; [7]
  interaction data at Target Concentration 1000: 202
MDM2; [8]
  interaction data at Target Concentration 1000: 149

## DPAAVQCNTAAFQCYWF (linker 7-14 via Phenylene(1,4-NHCOCH2)2 (inferred))
MDM2; [1]
  interaction data, BLANK: 0
MDM2; [2]
  interaction data, BLANK: 0
MDM2; [3]
  interaction data at Target Concentration 10: 0
MDM2; [4]
  interaction data at Target Concentration 30: 0
MDM2; [5]
  interaction data at Target Concentration 100: 23
MDM2; [6]
  interaction data at Target Concentration 300: 56
MDM2; [7]
  interaction data at Target Concentration 1000: 53
MDM2; [8]
  interaction data at Target Concentration 1000: 69

## DPAQHHCQQAAFWCQWW (DPAQHHCQQAAFWCQWW-NH2; linker 7-14 via Phenylene(1,4-NHCOCH2)2 (inferred))
MDM2; [1]
  interaction data, BLANK: 0
MDM2; [2]
  interaction data, BLANK: 0
MDM2; [3]
  interaction data at Target Concentration 10: 0
MDM2; [4]
  interaction data at Target Concentration 30: 0
MDM2; [5]
  interaction data at Target Concentration 100: 13
MDM2; [6]
  interaction data at Target Concentration 300: 13
MDM2; [7]
  interaction data at Target Concentration 1000: 36
MDM2; [8]
  interaction data at Target Concentration 1000: 18

## DPADRDCFSAAWACVIR (linker 7-14 via Phenylene(1,4-NHCOCH2)2 (inferred))
MDM2; [1]
  interaction data, BLANK: 0
MDM2; [2]
  interaction data, BLANK: 0
MDM2; [3]
  interaction data at Target Concentration 10: 0
MDM2; [4]
  interaction data at Target Concentration 30: 37
MDM2; [5]
  interaction data at Target Concentration 100: 188
MDM2; [6]
  interaction data at Target Concentration 300: 209
MDM2; [7]
  interaction data at Target Concentration 1000: 160
MDM2; [8]
  interaction data at Target Concentration 1000: 215

## DPASQDCFSAAWQCLQT (DPASQDCFSAAWQCLQT-NH2; linker 7-14 via Phenylene(1,4-NHCOCH2)2 (inferred))
MDM2; [1]
  interaction data, BLANK: 0
MDM2; [2]
  interaction data, BLANK: 0
MDM2; [3]
  interaction data at Target Concentration 10: 0
MDM2; [4]
  interaction data at Target Concentration 30: 31
MDM2; [5]
  interaction data at Target Concentration 100: 138
MDM2; [6]
  interaction data at Target Concentration 300: 165
MDM2; [7]
  interaction data at Target Concentration 1000: 94
MDM2; [8]
  interaction data at Target Concentration 1000: 231

## DPARLRCQDAAFACMWY (DPARLRCQDAAFACMWY-NH2; linker 7-14 via Phenylene(1,4-NHCOCH2)2 (inferred))
MDM2; [1]
  interaction data, BLANK: 0
MDM2; [2]
  interaction data, BLANK: 0
MDM2; [3]
  interaction data at Target Concentration 10: 0
MDM2; [4]
  interaction data at Target Concentration 30: 0
MDM2; [5]
  interaction data at Target Concentration 100: 17
MDM2; [6]
  interaction data at Target Concentration 300: 31
MDM2; [7]
  interaction data at Target Concentration 1000: 32
MDM2; [8]
  interaction data at Target Concentration 1000: 37

## DPADIVCQDAAFQCFWW (linker 7-14 via Phenylene(1,4-NHCOCH2)2 (inferred))
MDM2; [1]
  interaction data, BLANK: 0
MDM2; [2]
  interaction data, BLANK: 0
MDM2; [3]
  interaction data at Target Concentration 10: 0
MDM2; [4]
  interaction data at Target Concentration 30: 1
MDM2; [5]
  interaction data at Target Concentration 100: 12
MDM2; [6]
  interaction data at Target Concentration 300: 33
MDM2; [7]
  interaction data at Target Concentration 1000: 46
MDM2; [8]
  interaction data at Target Concentration 1000: 18

## DPARVHCNQAAFMCHWV (DPARVHCNQAAFMCHWV-NH2; linker 7-14 via Phenylene(1,4-NHCOCH2)2 (inferred))
MDM2; [1]
  interaction data, BLANK: 0
MDM2; [2]
  interaction data, BLANK: 0
MDM2; [3]
  interaction data at Target Concentration 10: 0
MDM2; [4]
  interaction data at Target Concentration 30: 0
MDM2; [5]
  interaction data at Target Concentration 100: 9
MDM2; [6]
  interaction data at Target Concentration 300: 6
MDM2; [7]
  interaction data at Target Concentration 1000: 14
MDM2; [8]
  interaction data at Target Concentration 1000: 8

## DPANHACFQAAWDCQFF (linker 7-14 via Phenylene(1,4-NHCOCH2)2 (inferred))
MDM2; MDM2 target concentration 10 nM
  interaction data at Target Concentration 10: 11
MDM2; MDM2 target concentration 30 nM
  interaction data at Target Concentration 30: 154
MDM2; MDM2 target concentration 100 nM
  interaction data at Target Concentration 100: 643
MDM2; MDM2 target concentration 300 nM
  interaction data at Target Concentration 300: 1045
MDM2; MDM2 target concentration 1000 nM, first column
  interaction data at Target Concentration 1000: 776
MDM2; MDM2 target concentration 1000 nM, second column
  interaction data at Target Concentration 1000: 1088

## DPAQQDCFLAAWDCVWQ (DPAQQDCFLAAWDCVWQ-NH2; linker 7-14 via Phenylene(1,4-NHCOCH2)2 (inferred))
MDM2; [1]
  interaction data, BLANK: 0
MDM2; [2]
  interaction data, BLANK: 0
MDM2; [3]
  interaction data at Target Concentration 10: 0
MDM2; [4]
  interaction data at Target Concentration 30: 12
MDM2; [5]
  interaction data at Target Concentration 100: 132
MDM2; [6]
  interaction data at Target Concentration 300: 166
MDM2; [7]
  interaction data at Target Concentration 1000: 104
MDM2; [8]
  interaction data at Target Concentration 1000: 237

## DPAHQQCFMAAWRCVVH (linker 7-14 via Phenylene(1,4-NHCOCH2)2 (inferred))
MDM2; [1]
  interaction data, BLANK: 0
MDM2; [2]
  interaction data, BLANK: 0
MDM2; [3]
  interaction data at Target Concentration 10: 1
MDM2; [4]
  interaction data at Target Concentration 30: 48
MDM2; [5]
  interaction data at Target Concentration 100: 230
MDM2; [6]
  interaction data at Target Concentration 300: 375
MDM2; [7]
  interaction data at Target Concentration 1000: 356
MDM2; [8]
  interaction data at Target Concentration 1000: 327

## DPAVRWCAAAAAICMVD (linker 7-14 via Phenylene(1,4-NHCOCH2)2 (inferred); not fully specified (C-terminus))
CHIP; [9]
  interaction data, BLANK: 0
CHIP; [10]
  interaction data, BLANK: 0
CHIP; [11]
  interaction data at Target Concentration 10: 0
CHIP; [12]
  interaction data at Target Concentration 30: 0
CHIP; [13]
  interaction data at Target Concentration 100: 0
CHIP; [14]
  interaction data at Target Concentration 300: 21
CHIP; [15]
  interaction data at Target Concentration 1000: 16
CHIP; [16]
  interaction data at Target Concentration 1000: 22

## PCYSAWIVCSD (linker 2-9 via Phenylene(1,4-NHCOCH2)2 (inferred))
CHIP; CHIP target concentration 10 nM
  interaction data at Target Concentration 10: 4
CHIP; CHIP target concentration 30 nM
  interaction data at Target Concentration 30: 81
CHIP; CHIP target concentration 100 nM
  interaction data at Target Concentration 100: 123
CHIP; CHIP target concentration 300 nM
  interaction data at Target Concentration 300: 444
CHIP; CHIP target concentration 1000 nM, first column
  interaction data at Target Concentration 1000: 549
CHIP; CHIP target concentration 1000 nM, second column
  interaction data at Target Concentration 1000: 468

## DPAEYACYHAASICNVD (linker 7-14 via Phenylene(1,4-NHCOCH2)2 (inferred))
CHIP; [9]
  interaction data, BLANK: 0
CHIP; [10]
  interaction data, BLANK: 0
CHIP; [11]
  interaction data at Target Concentration 10: 0
CHIP; [12]
  interaction data at Target Concentration 30: 0
CHIP; [13]
  interaction data at Target Concentration 100: 54
CHIP; [14]
  interaction data at Target Concentration 300: 61
CHIP; [15]
  interaction data at Target Concentration 1000: 31
CHIP; [16]
  interaction data at Target Concentration 1000: 91
